Target: purified NTRI ectodomain (FLAG-NTRI, Fc removed) (human) (UniProt Q9P121)
Assay: AUC

With “purified NTRI ectodomain (FLAG-NTRI, Fc removed) (from UniProt Q9P121 34-321) (domain or fragment)” the Kd was 110 nM, the percent dimer at 2.0 uM was 50% and the percent dimer at 10 uM was 87%. It also gave a stoichiometry N of 2.

Reference: paper PMC6609445
